Results taken from PMC2566858 (Nucleic Acids Research, 2008).
Numbering of substitutions follows the chain as printed.

B1: 60-base ssDNA (ssDNA)
DNA: AAGCCAAGCTTCTAGAGTCAGCCCGTGATATTCATTACTTCTTATCCTAGGATCCCCGTT
B2: 60 bp dsDNA (dsDNA)
DNA 1: B1 DNA
DNA 2: AACGGGGATCCTAGGATAAGAAGTAATGAATATCACGGGCTGACTCTAGAAGCTTGGCTT

Assays:
Assay in all cases: fluorescence anisotropy
[1] = target: T1, rGyr_fl Y851F (full-length reverse gyrase) (Thermotoga maritima, UniProt O51934 1-1104, Y851F)
T1 sequence: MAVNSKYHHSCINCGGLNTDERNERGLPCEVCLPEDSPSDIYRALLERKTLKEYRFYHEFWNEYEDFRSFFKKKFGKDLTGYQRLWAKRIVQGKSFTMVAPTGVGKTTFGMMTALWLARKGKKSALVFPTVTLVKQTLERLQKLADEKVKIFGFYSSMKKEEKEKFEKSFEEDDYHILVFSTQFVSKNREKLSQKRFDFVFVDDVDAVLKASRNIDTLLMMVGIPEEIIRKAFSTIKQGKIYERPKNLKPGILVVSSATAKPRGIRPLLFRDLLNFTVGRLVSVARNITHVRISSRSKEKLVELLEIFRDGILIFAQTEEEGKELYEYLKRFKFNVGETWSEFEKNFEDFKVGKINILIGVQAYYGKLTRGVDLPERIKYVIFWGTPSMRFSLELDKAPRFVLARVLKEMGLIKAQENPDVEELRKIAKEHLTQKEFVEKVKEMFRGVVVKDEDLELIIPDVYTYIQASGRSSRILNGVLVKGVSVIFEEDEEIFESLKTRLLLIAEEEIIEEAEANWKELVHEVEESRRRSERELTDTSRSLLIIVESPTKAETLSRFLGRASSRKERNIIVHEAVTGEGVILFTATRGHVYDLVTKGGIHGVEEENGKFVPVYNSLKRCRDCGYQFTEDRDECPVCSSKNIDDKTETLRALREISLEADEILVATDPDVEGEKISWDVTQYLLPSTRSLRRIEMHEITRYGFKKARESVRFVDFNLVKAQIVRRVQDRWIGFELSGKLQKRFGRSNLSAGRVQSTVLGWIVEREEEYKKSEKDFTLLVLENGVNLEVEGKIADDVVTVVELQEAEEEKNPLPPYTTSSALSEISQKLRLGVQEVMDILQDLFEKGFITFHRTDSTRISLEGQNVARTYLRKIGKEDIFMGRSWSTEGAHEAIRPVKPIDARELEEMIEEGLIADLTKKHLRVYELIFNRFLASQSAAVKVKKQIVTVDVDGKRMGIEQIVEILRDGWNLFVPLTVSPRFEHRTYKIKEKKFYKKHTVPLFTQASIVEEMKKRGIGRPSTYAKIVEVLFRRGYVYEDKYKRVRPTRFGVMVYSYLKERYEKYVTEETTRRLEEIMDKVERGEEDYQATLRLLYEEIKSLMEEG

[2] = target: T2, rGyr_hel K106Q (Thermotoga maritima, UniProt O51934 59-541, K106Q)
T2 sequence: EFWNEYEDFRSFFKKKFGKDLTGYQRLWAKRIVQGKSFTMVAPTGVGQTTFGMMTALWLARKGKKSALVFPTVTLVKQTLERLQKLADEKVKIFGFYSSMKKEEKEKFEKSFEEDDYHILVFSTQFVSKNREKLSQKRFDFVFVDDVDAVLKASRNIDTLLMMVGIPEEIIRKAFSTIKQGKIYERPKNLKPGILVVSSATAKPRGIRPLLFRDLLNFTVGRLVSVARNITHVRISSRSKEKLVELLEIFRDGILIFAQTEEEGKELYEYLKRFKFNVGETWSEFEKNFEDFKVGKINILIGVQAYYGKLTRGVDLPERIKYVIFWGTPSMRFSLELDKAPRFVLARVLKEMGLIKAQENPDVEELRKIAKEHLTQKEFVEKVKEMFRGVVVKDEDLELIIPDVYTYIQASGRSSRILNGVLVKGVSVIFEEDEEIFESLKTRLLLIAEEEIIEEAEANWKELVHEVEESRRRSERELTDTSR

[3] = target: T3, rGyr_fl K106Q/Y851F (Thermotoga maritima, UniProt O51934 1-1104, K106Q;Y851F)
T3 sequence: T1 sequence with K106Q

Binder	Kd [1] [µM]	Kd [2] [µM]	Kd [3] [µM]
B1	0.046 ± 0.008		
B2		1.7 ± 0.2	0.49 ± 0.09
